In patent US20210188980A1 (SHANGHAI EPIMAB BIOTHERAPEUTICS, published 2021):
Where a chain is given by its changes, count along the chain named. Values belong to the binder of their own block, whether it stands above or below them.

What was measured:
[1] = biological target: T1, recombinant human LAG-3-his protein (Novoprotein) (human, UniProt P18627 23-450); assay: BLI Octet, Ab on AHC sensor, huLAG-3-his analyte
T1 construct: Bought; also called huLAG-3; not shown: His tag
T1 sequence (looked up): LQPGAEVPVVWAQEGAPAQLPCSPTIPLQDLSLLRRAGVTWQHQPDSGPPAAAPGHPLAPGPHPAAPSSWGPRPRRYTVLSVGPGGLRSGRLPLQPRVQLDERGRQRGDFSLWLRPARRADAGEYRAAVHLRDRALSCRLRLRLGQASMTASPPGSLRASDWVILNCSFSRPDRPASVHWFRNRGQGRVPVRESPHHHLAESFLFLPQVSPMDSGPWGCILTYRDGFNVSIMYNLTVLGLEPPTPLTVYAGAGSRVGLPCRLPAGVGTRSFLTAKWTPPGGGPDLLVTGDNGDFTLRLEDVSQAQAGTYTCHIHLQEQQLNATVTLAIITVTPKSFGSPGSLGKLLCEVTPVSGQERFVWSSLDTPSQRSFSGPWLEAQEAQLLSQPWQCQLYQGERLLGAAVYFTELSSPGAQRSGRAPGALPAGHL
Experimental: (§1) All 9 humanized antibodies (Table 25) and a chimeric antibody having the parental murine VH and VL domains (mAb747c) were ranked by dissociation rate constant (koff). Briefly, antibodies were characterized for affinities and binding kinetics by Octet RED96 biolayer interferometry (Pall FortéBio LLC). Antibodies were captured by Anti-HIgG Fc Capture (AHC) Biosensors (Pall) at a concentration of 100 nM for 30 seconds. Sensors were then dipped into running buffer (1× pH7.2 PBS, 0.05% Tween 20, 0.1% BSA) for 60 seconds to check baseline. Binding was measured by dipping sensors into a single concentration of recombinant human LAG-3-his protein (Novoprotein). Dissociation was followed by dipping sensors into running buffer for 1200 seconds. The association and dissociation curves were fitted to a 1:1 Langmuir binding model using FortéBio Data Analysis software (Pall).

[2] = biological target: T1, recombinant human LAG-3-his protein …; assay: BLI Octet, Ab on AHC sensor, huLAG-3-his; test group 1
Experimental: as §1, with “All 18” for “All 9”, “(Table 34)” for “(Table 25)”, “by Octet®RED96” for “by Octet RED96”, “(Pall ForteBio” for “(Pall FortéBio”, “by Anti-hIgG” for “by Anti-HIgG”, “(Pall). In each test group, the off-rates of antibodies were able to be compared with that of mAb747c. The off-rate ratios were calculated by the off-rate of antibody to that of mAb747c of its group and were compared all together. The lower the ratio was, the higher was the affinity of the antibody.” for “(Pall).”

[3] = biological target: T1, recombinant human LAG-3-his protein …; assay: BLI Octet, Ab on AHC sensor, huLAG-3-his; test group 2
Experimental: as §1, with “All 18” for “All 9”, “(Table 34)” for “(Table 25)”, “by Octet®RED96” for “by Octet RED96”, “(Pall ForteBio” for “(Pall FortéBio”, “by Anti-hIgG” for “by Anti-HIgG”, “(Pall). In each test group, the off-rates of antibodies were able to be compared with that of mAb747c. The off-rate ratios were calculated by the off-rate of antibody to that of mAb747c of its group and were compared all together. The lower the ratio was, the higher was the affinity of the antibody.” for “(Pall).”

[4] = biological target: T1, recombinant human LAG-3-his protein …; assay: BLI Octet, Ab on AHC sensor, huLAG-3-his; test group 3
Experimental: as §1, with “All 18” for “All 9”, “(Table 34)” for “(Table 25)”, “by Octet®RED96” for “by Octet RED96”, “(Pall ForteBio” for “(Pall FortéBio”, “by Anti-hIgG” for “by Anti-HIgG”, “(Pall). In each test group, the off-rates of antibodies were able to be compared with that of mAb747c. The off-rate ratios were calculated by the off-rate of antibody to that of mAb747c of its group and were compared all together. The lower the ratio was, the higher was the affinity of the antibody.” for “(Pall).”

[5] = biological target: T1, recombinant human LAG-3-his protein …; assay: BLI Octet, Ab on AHC sensor, huLAG-3-his; test group 4
Experimental: as §1, with “All 18” for “All 9”, “(Table 34)” for “(Table 25)”, “by Octet®RED96” for “by Octet RED96”, “(Pall ForteBio” for “(Pall FortéBio”, “by Anti-hIgG” for “by Anti-HIgG”, “(Pall). In each test group, the off-rates of antibodies were able to be compared with that of mAb747c. The off-rate ratios were calculated by the off-rate of antibody to that of mAb747c of its group and were compared all together. The lower the ratio was, the higher was the affinity of the antibody.” for “(Pall).”

[6] = biological target: T1, recombinant human LAG-3-his protein …; assay: BLI Octet, Ab on AHC sensor, huLAG-3-his; test group 1; remark: listed apart in the source
Experimental: as §1
(§2) The seven Fab clones were converted to full IgG proteins. Briefly, the VH and VL genes were produced synthetically and then cloned into vectors containing coding sequences for the human IgG1 and human kappa constant domains, respectively. The heavy chain and cognate light chain plasmids were co-transfected into HEK 293E cells, individually. After approximately six days of post-transfection cell culture, the supernatants were harvested and subjected to Protein A affinity chromatography. The affinity of purified antibodies was ranked by Octet® RED96 biolayer interferometry (see, Example 9.1, supra).

[7] = biological target: T1, recombinant human LAG-3-his protein …; assay: BLI Octet, Ab on AHC sensor, huLAG-3-his; test group 2; remark: listed apart in the source
Experimental: as §1, §2

[8] = biological target: T1, recombinant human LAG-3-his protein …; assay: BLI Octet, Ab on AHC sensor, huLAG-3-his; test group 1; remark: listed apart in the source
Experimental: as §1
(§3) All 13 humanized antibodies (Table 39) and chimeric anti-LAG-3 antibody mAb747c having the parental murine VH and VL domains were ranked by dissociation rate constant (koff) in the same manner described in Example 9.1 supra. In each test group, the off-rates of antibodies were able to be compared with that of mAb747c. The off-rate ratios were calculated by the off-rate of antibody to that of mAb747c of its group and were compared all together. The lower the ratio was, the higher was the affinity of the antibody.

[9] = biological target: T1, recombinant human LAG-3-his protein …; assay: BLI Octet, Ab on AHC sensor, huLAG-3-his; test group 2; remark: listed apart in the source
Experimental: as §1, §3

[10] = biological target: T1, recombinant human LAG-3-his protein …; assay: BLI Octet, Ab on AHC sensor, huLAG-3-his; test group 3; remark: listed apart in the source
Experimental: as §1, §3

[11] = biological target: T2, human LAG-3 ECD/Fc fusion protein (human); assay: SPR Biacore, HuLAG-3 ECD/Fc on chip, Ab analyte
T2 construct: also called HuLAG-3 ECD/Fc

[12] = biological target: T2, human LAG-3 ECD/Fc fusion protein; assay: SPR Biacore, HuPD-1 ECD/Fc and HuLAG-3 ECD/Fc both on chip, Ab analyte
human PD-1-His protein = biological target: T3, human PD-1-His protein (human, UniProt Q15116 25-167, limits assumed); assay: SPR Biacore, Ab captured, huPD-1-His analyte
T3 construct: also called huPD-1; not shown: His tag
T3 sequence (Q15116 25-167 limits assumed): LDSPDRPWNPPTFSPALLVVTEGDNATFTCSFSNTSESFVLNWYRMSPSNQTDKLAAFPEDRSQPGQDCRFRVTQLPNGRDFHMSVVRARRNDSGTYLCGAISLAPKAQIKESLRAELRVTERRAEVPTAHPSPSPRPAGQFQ
Experimental: (§4) All 15 humanized antibodies and the chimeric antibody (mAb709c) were characterized by binding ELISA and cell-based RBA. For cell-based RBA, 2×10⁵ cells/well of CHO-K1-huPD1 cells were added to a pre-blocked 96-well round-bottomed plate and after washing, 50 μl antibodies with diluted concentration ranging from 0.064 nM to 200 nM were added to each well. Next, 50 μl of 60 μg/ml biotinylated PD-L1/Fc or biotinylated PD-L2/Fc protein were added. After gentle mixing and incubation at 4° C., the cells were washed and stained by Alexa Fluor™ 488 streptavidin solution (1:1000, ThermoFisher Scientific; Cat. No. S32354). Signals were readout by FACS and curves were fitted by GraphPad software. […] The association and dissociation rate constants, k (M⁻¹ s⁻¹) and koff(s⁻¹), respectively, were determined by making kinetic binding measurements at five different concentrations of human PD-1-His protein at a continuous flow rate of 30 μl/min. The equilibrium dissociation constant KD (M) of the reaction between antibodies and related target proteins was calculated from the kinetic rate constants using the formula KD=koff/kₒₙ. HumAb709-8 had minimal back-mutation(s) while maintaining to the greatest extent the affinity of the parental variable domains on chimeric mAb709c.

[13] = biological target: T4, human PD-1 ECD/Fc fusion protein (human); assay: SPR Biacore, HuPD-1 ECD/Fc on chip, Ab analyte
T4 construct: also called huPD-1/Fc; HuPD-1 ECD/Fc
T4 sequence (chain, as listed by the source limits assumed): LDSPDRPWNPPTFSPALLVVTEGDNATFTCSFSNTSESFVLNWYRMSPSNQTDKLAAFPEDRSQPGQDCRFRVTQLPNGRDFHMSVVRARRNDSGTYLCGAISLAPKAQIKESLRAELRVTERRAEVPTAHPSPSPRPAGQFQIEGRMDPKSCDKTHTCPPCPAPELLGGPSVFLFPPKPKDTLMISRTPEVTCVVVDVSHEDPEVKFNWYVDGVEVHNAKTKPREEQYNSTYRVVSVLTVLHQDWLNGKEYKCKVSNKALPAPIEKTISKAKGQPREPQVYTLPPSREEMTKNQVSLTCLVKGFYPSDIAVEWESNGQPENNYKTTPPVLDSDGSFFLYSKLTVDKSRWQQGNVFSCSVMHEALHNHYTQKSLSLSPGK

[14] = biological target: T5, human PD-1 expressed on cells (human, UniProt Q15116 25-288); assay: cell RBA FACS, CHO-K1-huPD1; competitor biotin-PD-L1/Fc
T5 construct: whole, on cells; also called CHO-K1/huPD-1; CHO-K1-hPD-1 cells
T5 sequence (Q15116 25-288): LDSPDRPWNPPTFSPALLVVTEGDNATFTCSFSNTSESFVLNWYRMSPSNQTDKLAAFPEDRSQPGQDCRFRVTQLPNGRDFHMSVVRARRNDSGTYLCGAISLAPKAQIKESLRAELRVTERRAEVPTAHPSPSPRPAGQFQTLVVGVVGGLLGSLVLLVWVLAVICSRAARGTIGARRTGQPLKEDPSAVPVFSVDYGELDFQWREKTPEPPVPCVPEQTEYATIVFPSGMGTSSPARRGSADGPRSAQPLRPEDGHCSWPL
Experimental: as §4

[15] = biological target: T5, human PD-1 expressed on cells; assay: cell RBA FACS, CHO-K1-huPD1; competitor biotin-PD-L2/Fc
Experimental: as §4

[16] = biological target: T4, human PD-1 ECD/Fc fusion protein; assay: SPR Biacore, HuPD-1 ECD/Fc and HuLAG-3 ECD/Fc both on chip, Ab analyte

B4: HumAb747-42 (antibody, human IgG1, V domains shown)
VH: EVQLVQSGAEVKKPGASVKVSCKASDFNIKDDYMHWVRQAPGQGLEWIGWIVPENGNTEYASKFQGKATITADTSINTAYMELSRLRSDDTAVYYCTVYGDYWGQGTTVTVSS
VL: DIQMTQSPSSLSASVGDRVTINCRASQEISGYLSWLQQKPEGTIKRLIYAASTLDSGVPSRFSGSRSGSDYTLTISSLQPEDFATYYCLQYASYPLTFGGGTKVEIK
notes: humanized mAb747; human IgG1 and human kappa constant domains
koff [1]: 0.00083 s⁻¹
off-rate constant, fold of the chimeric control mAb747c [1]: 2.2 fold
koff [7]: 0.00428 s⁻¹
off-rate ratio to that of mAb747c [7]: 263%

B5: mAb709c (antibody, V domains shown)
VH: EVKLVESGGGLVKPGGSLKLSCAASGFTFSFYTMSWVRQTPEKRLEWVATISGGGRDTYYPDSVKGRFTISRDNAKNTLYLHMSSLRSEDTALYYCAGQGGNYLFAYWGQGTLVTVSA
VL: DIVMTQSHKFMSTSVGDSVTITCKASQDVNTVVAWYQQKPGQSLKVLISWASTRHTGVPARFTGSGSGTDYTLTISSVQAEDLALYYCQQHYTTPYTFGGGTQLEIK
notes: also called HumAb709c
Kd (human PD-1-His protein): 0.567 nM
koff (human PD-1-His protein): 6.88e-05 s⁻¹
kon (human PD-1-His protein): 121000 M⁻¹ s⁻¹
Kd [13]: 0.035 nM
koff [13]: 8.82e-06 s⁻¹
kon [13]: 252000 M⁻¹ s⁻¹
IC50 [14]: 0.62 nM
IC50 [15]: 0.56 nM
Kd [16]: 0.0337 nM
koff [16]: 9.72e-06 s⁻¹
kon [16]: 288000 M⁻¹ s⁻¹

Now from value to binder:

koff [1]: 0.000377 s⁻¹
koff [2]: 0.00136 s⁻¹
off-rate ratio to that of mAb747c [2]: 100%
koff [3]: 0.00135 s⁻¹
off-rate ratio to that of mAb747c [3]: 100%
koff [4]: 0.00123 s⁻¹
off-rate ratio to that of mAb747c [4]: 100%
koff [5]: 0.00053 s⁻¹
off-rate ratio to that of mAb747c [5]: 100%
koff [6]: 0.0015 s⁻¹
off-rate ratio to that of mAb747c [6]: 100%
koff [7]: 0.00163 s⁻¹
off-rate ratio to that of mAb747c [7]: 100%
koff [8]: 0.000615 s⁻¹
off-rate ratio to that of mAb747c [8]: 100%
koff [9]: 0.000676 s⁻¹
off-rate ratio to that of mAb747c [9]: 100%
koff [10]: 0.000631 s⁻¹
off-rate ratio to that of mAb747c [10]: 100%
B1: mAb747c (antibody, V domains shown)
VH: EVQLQQSGAELVRPGASVKLSCTASDFNIKDDYMHWVKQRPEQGLDWIGWIVPENGNTEYASKFQGKATITADTSSNTAYLQLSSLTSEDTAVYYCTVYGDYWGQGTTLTVSS
VL: DIQMTQSPSSLSASLGERVSLNCRASQEISGYLSWLQQKPDGTIKRLIYAASTLDSGVPKRFSGSRSGSDYSLTISSLESEDFAAYYCLQYASYPLTFGAGTKLELK
notes: also called mAb717c

Kd [11]: 32.5 nM
koff [11]: 0.000181 s⁻¹
kon [11]: 5580 M⁻¹ s⁻¹
Kd [12]: 16.2 nM
koff [12]: 0.000154 s⁻¹
kon [12]: 9510 M⁻¹ s⁻¹
B2: mAb746c (antibody, V domains shown)
VH: B1 VH
VL: B1 VL with P40S, A85D

koff [10]: 0.000321 s⁻¹
off-rate ratio to that of mAb747c [10]: 51%
B3: HumAb747V-73 (antibody, human IgG1, V domains shown)
VH: EVQLVQSGAEVKKPGATVKLSCTASGFNIKDDYMHWVKQRPEQGLDWIGWIVPRNGNTVYASKFQGKATITADTSTNTAYLELSSLRSEDTAVYYCTVYGDYWGQGTTVTVSS
VL: B4 VL with N22T, E41G, T43A, T85D, G100Q, V104L, I106L
notes: engineered HumAb747-60 variant; human IgG1/kappa constant domains
